Measured values taken from the DeepSol protein solubility set.

test: soluble on expression in E. coli; label from the status in PepcDB or PDB records

| Sequence | soluble on expression in E. coli |
| --- | --- |
| MGSDKIHHHHHHMAIYLEMPKLIHEFPFRSLSNEGEVLTTPHWHKEIEILLITEGVVNLFINDKPMQLKKGEIVIIKGGDIHYILPSPGSERLVFQFDISFFNDLILLNEEKESLINLFSSIKKCSRDWSAKIRKSVFDILIDIYNEDLYKIEGYSYAIKGKMYNLIPILYRQIPREIEENTVEYEINSKEILERLNNIFKYVEKNYKQPIKLEDVSYEVGFSVYYFTKFFKKNTGKTFITFLNEYRLEKAKWILLNNNISIVDLVEEVGFGSTKTFYRVFKEKIGVSPLEFKKRYNSLEKKGSVSK | not soluble |
| MGSDKIHHHHHHMAKFQSYVICTSPRSGSTLLCNMLAATGVAGKPKSYFHHGSITDWLSYLNLDINPSLPESDLLAAIFEAAVETGRNGTGLFGLRLQRHSFDLFVEKLAVLYPTLASDRQRIEAAFGSTLFIHLTRLDKVQQAVSYVKAQQTGLWHRAPDGTELERLSAPRDPIYDAAKIHASYDEFIQYDRAWQSWFDMQGIQPLRITYEALCADPIASLKDVLVQLGVNGEAASSVVPGTAKLADGINQSWETRFRTEHLHSDPL | not soluble |
| MGSDKIHHHHHHMAKQVVKRTIIGSITNHQQVQDDLDSLGFAASKLWNVARWTTGRIWNETGHIPEDGELKSYLKSHERYSDLHSQSSQRVLEELSEAFTGWYGKRRNGDSKANPPAYRKHNDEHPRSTLTFKGAGFKLDTTNGRLRLSKGENLKEYWSDFVLCDIQIRPDVDLSAIESVQQVRAVWNKQRNEWELHVVCNVTVDIPENSAEKTVGIDLGICNFAALAFENQESELYPLNCLKQDDYYYSKHIARCDDSSSEEATRLHAKKSNRRTHYFHTLSKHIVERCVDENVGVIAIGDLSGIREDEDGEMKDWGKHGNLDLHSWAFDRFTDMLEYKAEEVGISVKRVSEENTSKSCSSCGCERDTNRVERGLYVCNECELVANADVNGAENIRQQVSPNPRSEDRSNGWLAQPSTLLFDKETGVFAPQEQVVS | not soluble |
| MGSDKIHHHHHHMALANFIDRAATAASQVLADFHLEDFKAALEKQVVAVAFDDQAASCAEGQATLDLAVRLLARLYPVLAILPLGSAASFQAQALERLAKSINPKVGIRRSGKSATICVVAGVTRPPLRCPTFFMGSDGWAAKLSRTDPVGSGSSLLPYGAGAASCFGAANVFRTIFAAQLTGAELDETIDLSLYSYDKTKAGEAGPIDIPVDLGETHLVGLGAIGHGSLWALARQPGLTGRLHVIDHEAIELSNLQRYVLAGQAEIGMSKAVLAATALRSTAIGVEAHPLTWAEYVARHGDWVFDRVGVALDTAADRLAVQGALPRWIANAWTQEHDLGISRHGFDDGQACLCCMYLPSGKSKDEHHLIAEELGIPEAHEQVKTLLQTNAGVPNDFVVRVATAMAVPFEPLAPFVGQPLRSFYQQAICGGLVFQLSDGSRRVRTVVPMAFQSALAGIMLAAELVKHSAGFPVGPTTSTRVNLLRPLGSRLHDPKAKDSSGRCICSDDDFIAAYRRKYGKSIVQLSDVSAA | not soluble |
| MGSDKIHHHHHHMALPEFKIAQLRHFVWVAELKGFHTAAEKACRTQPAISLSIRDLENKLSTILFEKRNAKTSNTELTPFGQYFLPKAKELIAHHDNVAQDMALMSEHKTGHLRLASVPSIACRMLPELLSKFIADVPELHISFYDDNSEAVLRKVEKQQVDIGIASLPHGHEHADITFTPIWEDQLGVVCREDHPFAEMTELHWKELRKQRLIRNGTSRLLEDTEAEPLLSDSQFLISNMLSLIAMLEEGLGITTLPWFAFPKNNSKLRFIPLTTPKIVRHIGIVQLKNKSLSPAAEALANFILKNTNQKKTSDLNPE | not soluble |
| MGSDKIHHHHHHMANLPWITIIGLGEDGPEGLPPASRDALAAAEIIMGPARHLALIGPTNAQQVEWPVPFADGIDVLRGHGGRPVAVLVSGDPFWYGAGRAMSKAFGRDAWRAIPVPSVFSLVSSRMGWPIEDTLCIGLHARPFEQLRAKLAPGRRIIATLRDGPAVSGVAHFLRDTGFGGSTLTVCEAVGGPREVVTQVSVAEALKGGFSHPVTVAVELHGTGEVIPLASGRPDALFQTDGVMTKRPVRALTLSALAPRAGEHLWDIGGGSGSIAVEWALADRTCTATVVETRADRVALIRANVESFGLTDQVTVLEGMAPGAMADAPPANAVFIGGGLSPEMLQFVTALPKGTRVVANAVTLEAEAHLAQAQGSFGGDLMRIEIAHAQPLGPKRGWTSAYPVVQWSVTL | not soluble |
| MGSDKIHHHHHHMANSHDGNAQVLSYPKHPPKDFSDLAATLIRNGLGRVDAETLERHLEQVGYFRLKGYWYQFLSPSSSCDYKHVLPFRKGTQFQQIWCRYIFDQELRTLVFDGIITFEIYLKSFLAHELSLFGGEFGYTKPEGLPELSFDDYLACINSLRASFTKSNLPYLKHFKRTYKDPLPPYWMIVGCLSYGTLKGYFYQGSPDSVKRKLAAKLHIFNPNTNPEVHGDIKILSNWLETIRQVRNMVAHHDRFWNETSTRIVPKLPKHRSGLHANEWWGNDWDAFRTDSTGPAAFLTMENYLLQQIDGSAWKNKFISLMDRYPEILATEMGFPEDWRSLALWS | not soluble |
| MGSDKIHHHHHHMAQMTSQTLYQALWNSADILRSKMDASEYKNYLLGLIFYKYLSDRMVVYASDQLEEKTTDLDKAQQIYTDAYNDKDLHDDLISNVSDEFGYHIQPDLTFTALIDKIDHGTFQLEDLSQSFRDIEQSSEFFSGLFEDVDLYSRKLGATPQKQNQVISDVMKQISTLDLVGQNTNDILGDAYEYLIGQFASDSGKNAGEFYTPQSVSRLITQIAMHGKEDVRGFTIYDPTMGSGSLLLNARRYSNERLSINYFGQELNTSTYNLARMNMILHGVPINNQHLHNADTLDQDWPIEEPTNFDAVVMNPPYSAHWQPSKGTENDPRFVSYGLAPKSKADFAFLLHGYYHLKDTGVMCIVLPHGVLFRGGAEGRIRKALLENGAIDTVIGLPANIFFNTSIPTTVTVLKKSRTTRDVLFIDASKEFEKAKNQNHLTDDNIQKILETCINRKDVDKYAHLASFDEIKENDFNLNIPRYVDTTEPEKPVDVVKVVADIKKNDEEIARLSSELAKNFDDLVANNDEAAKQLTALKELFKNE | not soluble |
| MGSDKIHHHHHHMARKKRNPDAEKLAESILNAYQPESVDDMQDALKDVFGPLFEKMLQGELNNHLGYDAHSKEPKEHDNRRNGYGTKTLKTSFGEVAIDVPRDREASFEPELIPKRKRDVSDIEGKVLSMYARGMSQRDIAATVEAIYGFDISHEMISDITDAVLPELEEWQARPLAKCYAFLFVDCMYVTLRENYEAKEYAVYTILGYDLKGNKEILGLWLNQTESKNRWMQVFDELKARGVEDVFFISMDGVSGLEEGAKAIFPSVIVQRCIVHLVRNALRYIPSKDYKEVCRDMKKFYGASSLNAAHAAFGSFQNRWSHYSGAVDVWKRNFAHVEQLFDYGSAIRKIMYTTNAVESVHSSFRKVTKKGAFSNENALLKLLYLRTKELHAKWSGGRIQNWAMVLKQLMINETFSSRMKSMRFTFRNNGRFIQLCVRSKFI | not soluble |
| MGSDKIHHHHHHMARRKEHSHDEIRVMAIEAAIALLQQQGVQGLSLRKIASEIGYVPSTLINIFGSYNYLLLAVSEATLQLLMSHLSAVSENDSLRHIIVMAQKYSEFAHSQRQCFKLVFELQLLESEHLPASQGQLIANLFRLIENELALLFPNETIEQQLQMSRVLWGGIHGLTALSLDNKLFADTVSLPALLESHVTGYLQGMGYQREEACC | not soluble |
| MGSDKIHHHHHHMARVAINGFGRIGRLVYRIIYERKNPDIEVVAINDLTDTKTLAHLLKYDSVHKKFPGKVEYTENSLIVDGKEIKVFAEPDPSKLPWKDLGVDFVIESTGVFRNREKAELHLQAGAKKVIITAPAKGEDITVVIGCNEDQLKPEHTIISCASCTTNSIAPIVKVLHEKFGIVSGMLTTVHSYTNDQRVLDLPHKDLRRARAAAVNIIPTTTGAAKAVALVVPEVKGKLDGMAIRVPTPDGSITDLTVLVEKETTVEEVNAVMKEATEGRLKGIIGYNDEPIVSSDIIGTTFSGIFDATITNVIGGKLVKVASWYDNEYGYSNRVVDTLELLLKM | not soluble |
